In PMC9849103 (Nature Communications, 2023):

B1: C1047 (antibody, V domains shown)
VH: EVQLVQSGAEVKKPGESLKISCKGSGYSFISYWIVWVRQMPGKGLEWIGIIYPGDSDTIYSPSFQGQVTLSADKSISTAYLQWSSLKASDTAIYYCAKMVTSGTSYYETRGYASSGPFDNWGQGTLVTVSS
VL: DIQLTQSPSSLSASVGDRVTITCRASQGISSALAWYQQKPGKAPKLLIYDASSLESGVPSRFSGSGSGTDFTLTISSLQPEDFATYYCQQSDNFGPGTKVDI
notes: source: 293-6E cells, transfected, purified (Protein G Sepharose)
B2: C3083 (antibody, V domains shown)
VH: EVQLVESGGGFVRPGGSLRLSCSTSGFTFSMFAMHWVRQAPGKGLEYVSGVSSNGLNTYYADSVKGRLVISRDDSKNTLYLQMTGLRVEDTAVYYCVKDDDFGDPGYGYHLDYWGQGTLVTVSS
VL: QSALTQPASVSGSPGQSITISCTGTSSDVGGYNYVSWFQQHPGKAPKLVIFEVSNRPSGISDRFSGSKSGNTASLTISELQAEDEADYYCSSYTSRIPIIFGTGTKVTV
notes: as for B1
B3: C963 (antibody, V domains shown)
VH: QVQLVQSGAEVKKPGSSVRVSCKASGGTFSSFTITWVRQAPGQGLEWMGRIIPNLNIPNYAQRFQGRITITAEKSTSTAYLELSSLRSEDTAVYYCARGVGYSGSGSNWYFDLWGRGTLVTVSS
VL: QSVLTQPPSVSGAPGQRVTISCTGSSSNIGAGYDVHWYQQLPGTAPKLLISGHINRPSGVPDRFSGSTSGTSASLAITGLQAEDEADYYCQSYDSSLSDSVFGGGTKLTV
notes: as for B1
B4: C3054 (antibody, V domains shown)
VH: EVQLVESGGGLGQPGGSLRLSCVASGFSFSTYSMNWVRQAPGKGLEWLSYINAGSTTIYSADSVTGRFSISRDNAKNSLYLHMNSLRADDTAVYYCARGVPFDYWGQGTLVTVSS
VL: DIVMTQTPLSLPVTPGEPASISCRSSRSLLDSDDADTYLDWYLQKPGQSPQLLIYTLSYRASGVPDRFSGSGSGTDFTLKISRVEAEDVGVYYCMQRIQFPWTFGQGTKVEIK
notes: as for B1
B5: C3057 (antibody, V domains shown)
VH: QVQLVQSGGGLVQPGGSLRLSCEASGLSVSRNYMRWVRQAPGKGLEWVSLIYSGGSTFYADSVKGRFTISRDNSKNTLYLQMTSLRAEDTAVYYCARDLVDYGMDVWGHGTTVTVSS
VL: DIQLTQSPSFLSASVGDRVTITCRASQGISNYLAWYQQKPGKAPQLLIYAASTLQSGVPSRFSGSGSGTEFTLTISSLQPEDFATYFCQQLNSDVITFGQGTRLEIK
notes: as for B1
B6: C1040 (antibody, V domains shown)
VH: QVQLVESGGGVVQPGRSLRLSCAASGFSFINYNMHWVRQAPGKGLEWVAVIWYDGSNKYYADSVKGRFTISRDNSKNTLYLQMNSLRVEDTAVYYCARDPAITEAEIDYWGQGTLVTVSS
VL: DVVMTQSPLSLPVTLGQAASISCRSSQSLVHSDGNTYLNWFQQRPGQSPRRLIYRVSNRDSGVPDRFSASGSGTDFTLKISRVEAEDVGVYYCMQGTHWPWTFGQGTKVEIK
notes: as for B1
B7: C2588 (antibody, V domains shown)
VH: QVQLVQSGAEVKKPGSSVKVSCKASGDTFNIYAINWVRQAPGQGLEWMGRIIPRFGMANYAQKFQGRVTMTADKSTSTAYMDLISLKSEDTAVYYCATSAYLSGSGHYFDYWGQGTLVTVSS
VL: EIVLTQSPATLSLSPGERATLSCRASQSVGGSFLAWYQQKPGQAPRLLIYGASSRATGIPDRFSGSGSGTDFTLTISRLEPEDFAVYFCQQYASSRTFGQGTKVEIK
notes: as for B1
B8: C1068 (antibody, V domains shown)
VH: QVQLVESGGGVVQPGRSLRLSCAASGFTFSTFAMHWVRQAPGKGLEWVAVTSYDGSNKYYADSVKGRFTISRDNSKNTLYLQMNSLRAEDTAVYYCARGLLWFGESEYFQHWGQGTLVTVSS
VL: not shown
notes: as for B1
B9: C022 (antibody, V domains shown)
VH: QVQLQESGPGLVKPSETLSVTCTVSGGSISSSRYYWGWIRQPPGKGLEWIGSIYYSGSTYYNPSLKSRVTISVDTSKNQFSLKLSSVTAADTAVYYCARHAAAYYDRSGYYFIEYFQHWGQGTLVTVSS
VL: DIQMTQSPSTLSASVGDSVTITCRASQSISSWLAWYQQKPGKAPKLLIYKASSLESGVPSRFSGSGSGTEFTLTISSLQPDDFATYYCQQYNNYRYTFGQGTKLEIK
notes: as for B1
B10: C978 (antibody, V domains shown)
VH: QVQLVQSGAEVKKPGSSVKVSCKASGATFSNYIISWVRQAPGQGLEWMGRTIPLLDIANYAQKFQGRVTITADKSTRIVYMHLGSLTSEDTAVYYCATGKGYSSSSAAYYFDHWGQGTLVTVSS
VL: QSVLTQPPSVSGAPGQRVTISCTGTNSNIGAGYDIHWYQQLPGTAPKLLIYGSNNRPSGVPDRFSGSKSGTSASLAITGLQAEDEADYYCQSYDSSLSGSEVFGGGTKLTVL
notes: as for B1
B11: C996 (antibody, V domains shown)
VH: EVQLVESGGGLVQPGGSLRLSCVASGFTSTNYDMHWVRQAPGRGLQWVSSIGTAGDTYYPGSVRGRFTISRENAKNSLDLQMNSLRVGDTAVYYCARGQRGYYDRSGYYWGWRAFDIWGQGTMVTVSS
VL: SYELTQPPSVSVAPGQTARITCGGNNIGNKSVYWYQQKPGQAPVLVVYDDSGRPSGIPERFSGSNSANTATLTISRVEAGDEADYYCQVWDNNSDQFGGGTKLTVL
notes: as for B1
B12: C118 (antibody, V domains shown)
VH: QVQLVESGGGVVQPGRSLRLSCAASGFTFSNYAMHWVRQAPGKGLEWVAVISYDGSNKYYADSVKGRFTISRDNSKNTLYLQMNSLRAEDTAIYYCASGYTGYDYFVRGDYYGLDVWGQGTTVTVSS
VL: QPVLTQSPSASASLGASVKLTCTLSSGHSSYAIAWHQQQPEKGPRYLMKLNTDGSHSKGDGIPDRFSGSSSGAERYLTISSLQSEDEADYYCQTWGTGILVFGGGTKLTVL
notes: as for B1
B13: C986 (antibody, V domains shown)
VH: EVQLVQSGAEVKKPGETLKISCKGSGDSFSNYWIGWVRQSPGKGLEWMAIVYPGDSDARYSPSFQGQVTISADKSVTTAYLKWSSLKASDTAIYYCVRGLPVDWYFDLWGRGTLVTVSS
VL: QSVLTQPPSVSGAPEQRVTISCTGSSSNIGAGHDVHWYQQLPGTAPKLLIYNNNNRPSGVPDRFSGSKSGASASLAISGLQAEDEAEYYCQSYDKSLSVLYVLGTGTKVTV
notes: as for B1
B14: C3060 (antibody, V domains shown)
VH: QVQLQESGPGLLKPSQTLSLICTVSGGSISSGDYYWNWIRQTPGKGLEWIGYIYYSGITYYNPSLKSRLSISLDTPKNQFSLKLTSVTAADTAVYYCATGPPTVTTENFDNWGQGTLVTVSS
VL: QSVLTQPPSVSAAPGQKVTISCSGSSSNIGNYYVSWYQQLPGTAPQLVIYDNNKRPSGIPDRFSGSKSGTSATLAITGLQTGDEADYYCGTWDASLNAGVFGGGTRLTVL
notes: as for B1
B15: C1049 (antibody, V domains shown)
VH: EVQLVQSGAEVKKPGESLKISCKSSGYSFISHWIGWVRQMPGKGLEWMGIIWPGDSDTRYSPSFQGQVTISVDKSITTVYLQWSSLKAADTAMYYCARRGSSWEVDYWGQGTLVTVSS
VL: not shown
notes: as for B1
B16: C3123 (antibody, V domains shown)
VH: QVQLQESGPGLVKPSQTLSLTCAVSGDSVSRGGFYWTWIRQLPGMGLECIGYIDYSGSTHYNPSLKSRVTISLDTSNNQFSLKMTSVTAADTALYYCARGAVPGIGWFDPWGQGTLVTVSS
VL: SYELTQPPSVSVAPGKTASISCGGNNIATKSVHWYQQKPGQAPALVIYYDSDRPSGIPERFSGSNSGNTATLTISRVEAGDEAAYYCQVWESSGDHVVFGGGTKLTVL
notes: as for B1
B17: C1002 (antibody, V domains shown)
VH: EVQLVESGGGLVQPGGSLRLSCAASEFIVSSNYMTWVRQAPGKGLEWVSIMYPGGSTFYADSVKGRFTISRDNSKNTLYLQINRLRAEDTAVYYCARDIAGRLDYWGQGTLVTVSS
VL: DIQMTQSPSSLSASVGDRVTITCQASQDINNYLNWYQQKPGKAPKLLIYDASNLETGVPSRFSGSGSGTDFSFTISSLQPEDIATYYCQQYDNLSRLTFGGGTKVEIK
notes: as for B1
B18: C2593 (antibody, V domains shown)
VH: QVQLVQSGAEVKKPGSSVKVSCKASGGTFNSYAITWVRQAPGQGLEWMGGIIFIFDTANYAQKFQGRVTITADESTSTVYMELSSLRSEDTAVYYCARPGAELRDHYYYYGMDVWGQGTTVTVSS
VL: DIVMTQSPLSLPVTPGEPASISCRSTQSLLHSNGNNYLDWYLQKPGQSPQLLIYLASNRAPGVPDRFSGSGSGTDFTLRISRVEAEDVGVYYCMQALQTPPTFGQGTRLEIK
notes: as for B1
B19: C971 (antibody, V domains shown)
VH: EVQLVESGGGLVKPGGSLRLSCAASGFTFNNAWMTWVRQAPGKGLEWVGRIKSKTDGGTTDYGTPAKGRFTISRDDSKNTLYLQMKSLRTEDTAVYYCTTVDVQGIWELLENDAFDIWGQGTMVTVSS
VL: EIVLTQSPGTLSLSPGERATLSCRATQAISSTYLAWYQQKPGQAPRLLIYGAFSRAPGIPDRFSGSGSETDFTLTISRLEPEDFAVYYCQQSDRSPFTFGPGTKVDIK
notes: as for B1
B20: C099 (antibody, V domains shown)
VH: EVQLVESGGGLIQPGGSLRLSCAASGITVSSNYMSWVRQAPGKGLEWVSVMYAGGSTFYADSVKGRFTISRDDSKNTLFLQMNSLRAEDTAIYYCARDLYSSGGTDIWGQGTMVTVSS
VL: EIVLTQSPGTLSLSPGERATLSCRASQSIGSSYLAWYQQKPGLAPRLLIYGASRRATGIPDKFSGSGSGADFTLTISRLEPEDFAVYYCQQYGSSPGTFGQGTKVEIK
notes: as for B1
B21: C3111 (antibody, V domains shown)
VH: EVQLVESGGRVVRPGESLRLSCAASGFNFNDYGMSWVRQVPGKGLEWVSGINWNGAISGYVDSVKGRFIISRDNAKNSLYLQMNSLRAEDTALYHCARAYCGDECYSLLVRGDALDIWGQGTMVTVSS
VL: QSVLTQPPSVSAAPGQTVTISCSGSSSNIGMNDVSWYQHLPGTAPKLLIYDSHKRPSGIPDRFSGSNSGTSATLGITGLQTGDEAHYYCGAWDSSLSAVVFGGGTMLAVL
notes: as for B1
B22: C080 (antibody, V domains shown)
VH: EVQLVQSGAEVKKPGESLNISCKASGYSFTIYWIAWVRQLPGKGLEWMGIIYPGDSDTRYSPSFQGQVTISADKSISTAYLQWRSLKASDSAVYYCARGVAVDWYFDLWGRGTLVTVSS
VL: QSVLTQPPSVSGAPGQRVTISCAGSSSNIGAGFDVYWYQQLPGTAPKLLIYGNNNRPSGVPDRFSGSKSGTSASLAITGLQAEDEADYYCQSSGSVLSDLYVFGTGTKVTVL
notes: as for B1

target: WT RBD (SARS-CoV-2 Wuhan-Hu-1 spike receptor binding domain) (SARS-CoV-2 (Wuhan-Hu-1), UniProt P0DTC2); assay: BLI; details: both partners purified

Binder	Kd [nM]
B1	4.99
B2	0.201
B3	0.653
B4	2.49
B5	2.08
B6	2.08
B7	1.47
B8	28.8
B9	3.15
B10	1.33
B11	3.72
B12	2.66
B13	0.472
B14	1.1
B15	2.35
B16	1.57
B17	0.441
B18	1.37
B19	0.949
B20	0.00214
B21	0.236
B22	0.286
